The target in this assay is R831b MerB (organomercurial lyase), unliganded (Serratia marcescens (plasmid R831b), UniProt P77072 1-212). The assay can be described thus: stopped-flow fluorescence kinetics.
Chain of R831b MerB (organomercurial lyase), unliganded (P77072 whole entry): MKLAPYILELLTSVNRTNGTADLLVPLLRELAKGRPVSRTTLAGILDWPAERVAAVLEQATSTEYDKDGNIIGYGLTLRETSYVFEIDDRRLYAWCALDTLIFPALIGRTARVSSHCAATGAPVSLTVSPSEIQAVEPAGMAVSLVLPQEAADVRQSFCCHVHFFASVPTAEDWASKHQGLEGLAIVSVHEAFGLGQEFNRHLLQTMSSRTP

B1: HgNmerA, 1:1 Hg(II) complex of pDU1358 NmerA (domain or fragment, Serratia marcescens (plasmid pDU1358), UniProt P08662 1-69, looked up)
chain: MTHLKITGMTCDSCAAHVKEALEKVPGVQSAIVSYAKGAAQLALDPGTAPDALTAAVAGLGYKAMLADA
modifications: also: 1:1 Hg(II) complex bound to Cys11 and Cys14 (CXXC motif)
For orientation: Kd means the concentration at which binding is half-saturated. Higher therefore signals a looser complex. Usually koff stands for a measure of how fast the partners let go of each other. A higher koff goes with fast dissociation. The term kon denotes a measure of how fast the partners come together. Higher therefore signals faster complex formation. The molecule B1 came in with a dissociation constant Kd of 660 µM, a koff of 330 s⁻¹ and a kon of 500000 M⁻¹ s⁻¹.

The values are drawn from paper PMC3042367 (Biochemistry, 2010).
